The values that follow come from paper PMC6992768, “Loss-of-function mutations in UDP-Glucose 6-Dehydrogenase cause recessive developmental epileptic encephalopathy” (Nature Communications, 2020).

This data set deals with the molecule itself. The data set is described as follows: SEC; analytical gel filtration of each apoprotein alone; 1x PBS with 1 mM DTT, 0.5 mL/min, Superdex gel filtration column, elution followed by A280; peaks compared with known hexamer, dimer and monomer elution times. On the technique in general: SEC sorts molecules by how far they enter the pores of the column.

B1: UGDH ∆132 (enzyme, human, UniProt O60701 1-494, looked up)
chain: MFEIKKICCIGAGYVGGPTCSVIAHMCPEIRVTVVDVNESRINAWNSPTLPIYEPGLKEVVESCRGKNLFFSTNIDDAIKEADLVFISVNTPTKTYGMGKGRAADLKYIEACARRIVQNSNGYKIVTEKSTPVRAAESIRRIFDANTKPNLNLQVLSNPEFLAEGTAIKDLKNPDRVLIGGDETPEGQRAVQALCAVYEHWVPREKILTTNTWSSELSKLAANAFLAQRISSINSISALCEATGADVEEVATAIGMDQRIGNKFLKASVGFGGSCFQKDVLNLVYLCEALNLPEVARYWQQVIDMNDYQRRRFASRIIDSLFNTVTDKKIAILGFAFKKDTGDTRESSSIYISKYLMDEGAHLHIYDPKVPREQIVVDLSHPGVSEDDQVSRLVTISKDPYEACDGAHAVVICTEWDMFKELDYERIHKKMLKPAFIFDGRRVLDGLHNELQTIGFQIETIGKKVSSKRIPYAPSGEIPKFSLQDPPNKKPKV
notes: source: purified recombinant; expression not described for this mutant
Turning to B1, the binding result was “binds”.

B2: UGDH A44V (enzyme, human, UniProt O60701 1-494, looked up)
chain: MFEIKKICCIGAGYVGGPTCSVIAHMCPEIRVTVVDVNESRINVWNSPTLPIYEPGLKEVVESCRGKNLFFSTNIDDAIKEADLVFISVNTPTKTYGMGKGRAADLKYIEACARRIVQNSNGYKIVTEKSTVPVRAAESIRRIFDANTKPNLNLQVLSNPEFLAEGTAIKDLKNPDRVLIGGDETPEGQRAVQALCAVYEHWVPREKILTTNTWSSELSKLAANAFLAQRISSINSISALCEATGADVEEVATAIGMDQRIGNKFLKASVGFGGSCFQKDVLNLVYLCEALNLPEVARYWQQVIDMNDYQRRRFASRIIDSLFNTVTDKKIAILGFAFKKDTGDTRESSSIYISKYLMDEGAHLHIYDPKVPREQIVVDLSHPGVSEDDQVSRLVTISKDPYEACDGAHAVVICTEWDMFKELDYERIHKKMLKPAFIFDGRRVLDGLHNELQTIGFQIETIGKKVSSKRIPYAPSGEIPKFSLQDPPNKKPKV
notes: human UDP-glucose 6-dehydrogenase (UGDH) with the patient variant A44V, made from WT-UGDH pET28a; Germline variant found in patients (families 1, 11, 13); Eluted mainly as a dimer by gel filtration; also called p.A44V; p.Ala44Val
On to B2, for which the “stoichiometry N” value came to 2.

B3: UDP-Glucose 6-Dehydrogenase (UGDH), wild type (enzyme, human, UniProt O60701 1-494, looked up)
chain: MFEIKKICCIGAGYVGGPTCSVIAHMCPEIRVTVVDVNESRINAWNSPTLPIYEPGLKEVVESCRGKNLFFSTNIDDAIKEADLVFISVNTPTKTYGMGKGRAADLKYIEACARRIVQNSNGYKIVTEKSTVPVRAAESIRRIFDANTKPNLNLQVLSNPEFLAEGTAIKDLKNPDRVLIGGDETPEGQRAVQALCAVYEHWVPREKILTTNTWSSELSKLAANAFLAQRISSINSISALCEATGADVEEVATAIGMDQRIGNKFLKASVGFGGSCFQKDVLNLVYLCEALNLPEVARYWQQVIDMNDYQRRRFASRIIDSLFNTVTDKKIAILGFAFKKDTGDTRESSSIYISKYLMDEGAHLHIYDPKVPREQIVVDLSHPGVSEDDQVSRLVTISKDPYEACDGAHAVVICTEWDMFKELDYERIHKKMLKPAFIFDGRRVLDGLHNELQTIGFQIETIGKKVSSKRIPYAPSGEIPKFSLQDPPNKKPKV
notes: human UDP-glucose 6-dehydrogenase (UGDH), codon-optimised E. coli expression construct WT-UGDH pET28a; also called UGDH^WT; WT-UGDH
Regarding B3, the binding result is “binds”.

B4: UGDH T325D (enzyme, human, UniProt O60701 1-494, looked up)
chain: MFEIKKICCIGAGYVGGPTCSVIAHMCPEIRVTVVDVNESRINAWNSPTLPIYEPGLKEVVESCRGKNLFFSTNIDDAIKEADLVFISVNTPTKTYGMGKGRAADLKYIEACARRIVQNSNGYKIVTEKSTVPVRAAESIRRIFDANTKPNLNLQVLSNPEFLAEGTAIKDLKNPDRVLIGGDETPEGQRAVQALCAVYEHWVPREKILTTNTWSSELSKLAANAFLAQRISSINSISALCEATGADVEEVATAIGMDQRIGNKFLKASVGFGGSCFQKDVLNLVYLCEALNLPEVARYWQQVIDMNDYQRRRFASRIIDSLFNDVTDKKIAILGFAFKKDTGDTRESSSIYISKYLMDEGAHLHIYDPKVPREQIVVDLSHPGVSEDDQVSRLVTISKDPYEACDGAHAVVICTEWDMFKELDYERIHKKMLKPAFIFDGRRVLDGLHNELQTIGFQIETIGKKVSSKRIPYAPSGEIPKFSLQDPPNKKPKV
notes: human UDP-glucose 6-dehydrogenase (UGDH) with T325D, made from WT-UGDH pET28a
As for B4, the binding result was “binds”.

In general, stoichiometry N refers to a count of units in the complex or per binding partner.
